The series concerns the target T1, HMGA1b-His6 (Homo sapiens, S2G).
T1 chain: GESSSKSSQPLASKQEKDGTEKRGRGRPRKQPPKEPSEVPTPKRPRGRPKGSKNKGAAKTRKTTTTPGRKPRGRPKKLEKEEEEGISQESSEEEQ
Description: streptavidin plate assay with nickel-HRP detection; poly(dGdC) competitor. The conditions noted are these: tags: C-terminal L-GSLNS-His6 (vector pHO2d), expressed in E. coli BL21; label: 5'-biotin on 34 nt strand. The procedure: The detection of HMGA1b-His6 bound to DNA is carried out with horseradish peroxidase modified with nickel (Nickel-HRP), which transforms a fluorogenic substrate. In this assay the spiegelmer displaces the recombinant HMGA1b from its natural binding partner. On account of the 1:1:1 stoichiometry of spiegelmer/rHMGA1b/dsDNA AT Hook, a direct prediction can be made regarding the affinity of the spiegelmers for HMGA1b. The principle of the assay is illustrated in FIG. 5.
To carry out this test spiegelmers in various concentrations and HMGA1b-His6 (0.36 μg/ml; ca. 30 nM) in a total volume of 100 μl are incubated for 10 minutes in a tapered floor plate at room temperature while shaking. The incubation solution also contains: 25 mM Tris/HCl, pH 7.0 (Ambion, Austin, Tex., USA), 140 mM KCl (Ambion, Austin, Tex., USA), 12 mM NaCl (Ambion, Austin, Tex., USA), 0.8 mM MgCl2 (Ambion, Austin, Tex., USA), 0.25 mg/ml BSA (Roche, Mannheim, Germany), 1 mM DTT (Invitrogen, Karlsruhe, Germany), 18-20 μg/ml poly(dGdC) (Sigma, Deisenhofen, Germany)), 0.05% Tween 20 (Roche, Mannheim, Germany). […]
100 μl of the fluorogenic HRP substrate (QuantaBlue, Pierce, Bonn, Germany) are then added to each well and the fluorescence is measured after 15 mins (ex: 340/em: 405 nm).

B1: dsDNA AT hook (dsDNA)
DNA 1: TCGAAAAAAGCAAAAAAAAAAAAAAAAAACTGGC
DNA 2: GCCAGTTTTTTTTTTTTTTTTTTGCTTTTTT
Regarding B1, the binding result is “binds”.

For the origin of these results see patent US20090192100, “NOVEL USE OF SPIEGELMERS” (published 2009).
